# Reference: paper PMC9482650, “Quantitative fragmentomics allow affinity mapping of interactomes” (Nature Communications, 2022)
# T1: APBA1_2, Q02410
# T1 sequence (Q02410 742-832, limits assumed, looked up): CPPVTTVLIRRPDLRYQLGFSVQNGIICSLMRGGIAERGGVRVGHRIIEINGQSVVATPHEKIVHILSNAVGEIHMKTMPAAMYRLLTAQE
# T2: CARD11, Q9BXL7
# T2 sequence (Q9BXL7 662-765, limits assumed, looked up): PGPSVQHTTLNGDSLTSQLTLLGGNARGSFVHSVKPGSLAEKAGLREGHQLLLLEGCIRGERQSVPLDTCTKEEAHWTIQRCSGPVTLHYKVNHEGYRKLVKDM
# T3: DFNB31_3, Q9P202
# T3 sequence (Q9P202 811-907, limits assumed, looked up): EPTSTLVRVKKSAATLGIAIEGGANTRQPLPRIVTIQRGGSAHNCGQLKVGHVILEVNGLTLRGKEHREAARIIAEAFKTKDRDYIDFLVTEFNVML
# T4: GRIP1_2, Q9Y3R0
# T4 sequence (Q9Y3R0 145-248, limits assumed, looked up): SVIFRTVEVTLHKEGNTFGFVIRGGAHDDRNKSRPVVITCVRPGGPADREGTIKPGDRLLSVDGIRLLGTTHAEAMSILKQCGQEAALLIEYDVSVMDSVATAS
# T5: GRIP1_3, Q9Y3R0
# T5 sequence (Q9Y3R0 247-346, limits assumed, looked up): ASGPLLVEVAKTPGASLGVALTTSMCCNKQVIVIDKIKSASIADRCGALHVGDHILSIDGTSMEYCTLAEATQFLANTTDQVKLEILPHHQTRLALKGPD
# T6: GRIP1_5, Q9Y3R0
# T6 sequence (Q9Y3R0 568-668, limits assumed, looked up): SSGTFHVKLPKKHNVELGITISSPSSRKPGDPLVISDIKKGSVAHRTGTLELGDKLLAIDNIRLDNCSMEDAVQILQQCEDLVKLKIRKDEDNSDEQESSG
# T7: LIN7C, Q9NUP9
# T7 sequence (Q9NUP9 88-185, limits assumed, looked up): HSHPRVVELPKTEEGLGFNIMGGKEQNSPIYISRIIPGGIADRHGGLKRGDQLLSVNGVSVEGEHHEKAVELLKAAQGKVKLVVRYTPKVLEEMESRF
# T8: MPP7, Q5T2T1
# T8 sequence (Q5T2T1 134-230, limits assumed, looked up): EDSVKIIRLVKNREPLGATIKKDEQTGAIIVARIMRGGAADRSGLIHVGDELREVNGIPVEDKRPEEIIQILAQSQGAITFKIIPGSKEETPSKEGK
# T9: SYNJ2BP, P57105
# T9 sequence (P57105 8-110, limits assumed, looked up): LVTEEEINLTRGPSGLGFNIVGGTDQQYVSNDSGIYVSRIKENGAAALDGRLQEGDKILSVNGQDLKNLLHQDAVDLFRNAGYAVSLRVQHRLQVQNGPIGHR
# T10: TJP3_3, O95049
# T10 sequence (O95049 375-456, limits assumed, looked up): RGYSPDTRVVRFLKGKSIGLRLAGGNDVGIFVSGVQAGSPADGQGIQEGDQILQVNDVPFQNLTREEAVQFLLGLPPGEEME
# What was measured:
# Experiment in all cases: holdup assay
# Parameters in all cases: key: below the threshold = too weak to quantify, mostly under pKd 3.1 to 4
# [1] = molecular target: AHNAK1, Q09666
# [2] = molecular target: T1, APBA1_2, Q02410
# [3] = molecular target: T2, CARD11, Q9BXL7
# [4] = molecular target: T3, DFNB31_3, Q9P202
# [5] = molecular target: DLG1_3, Q12959
# [6] = molecular target: DLG4_3, P78352
# [7] = molecular target: FRMPD3, Q5JV73
# [8] = molecular target: GORASP2, Q9H8Y8
# [9] = molecular target: GRID2IP_1, A4D2P6
# [10] = molecular target: T4, GRIP1_2, Q9Y3R0
# [11] = molecular target: T5, GRIP1_3, Q9Y3R0
# [12] = molecular target: T6, GRIP1_5, Q9Y3R0
# [13] = molecular target: GRIP2_3, Q9C0E4
# [14] = molecular target: GRIP2_7, Q9C0E4
# [15] = molecular target: HTRA2, O43464
# [16] = molecular target: LAP2, Q96RT1
# [17] = molecular target: T7, LIN7C, Q9NUP9
# [18] = molecular target: MAGI2_2, Q86UL8
# [19] = molecular target: MAGI2_4, Q86UL8
# [20] = molecular target: T8, MPP7, Q5T2T1
# [21] = molecular target: PDZRN4_1, Q6ZMN7
# [22] = molecular target: SCRIB_1, Q14160
# [23] = molecular target: SCRIB_2, Q14160
# [24] = molecular target: SNX27, Q96L92
# [25] = molecular target: T9, SYNJ2BP, P57105
# [26] = molecular target: TJP2_1, Q9UDY2
# [27] = molecular target: T10, TJP3_3, O95049
# [28] = plain residues with an end cap or a label only (N-terminal biotin on a linker: ado-ado)
# [29] = plain residues with an end cap or a label only (N-terminal biotin on a linker: (peg)3)
# Chain of TJP2_1, Q9UDY2 (Q9UDY2 24-128): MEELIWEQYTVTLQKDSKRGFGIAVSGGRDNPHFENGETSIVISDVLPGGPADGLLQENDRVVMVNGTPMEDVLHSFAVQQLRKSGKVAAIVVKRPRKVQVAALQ
# Chain of DLG4_3, P78352 (P78352 306-403): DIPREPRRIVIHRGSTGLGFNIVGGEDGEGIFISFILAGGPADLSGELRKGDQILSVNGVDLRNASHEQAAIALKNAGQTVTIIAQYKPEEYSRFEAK
# Chain of AHNAK1, Q09666 (Q09666 4-100): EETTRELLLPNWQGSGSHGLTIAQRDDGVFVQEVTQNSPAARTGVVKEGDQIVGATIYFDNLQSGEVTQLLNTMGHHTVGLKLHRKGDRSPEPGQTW
# Chain of GRIP2_7, Q9C0E4 (Q9C0E4 934-1023): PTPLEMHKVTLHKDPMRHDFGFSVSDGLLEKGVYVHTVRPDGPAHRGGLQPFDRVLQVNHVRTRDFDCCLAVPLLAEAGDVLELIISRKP
# Chain of SCRIB_2, Q14160 (Q14160 857-960): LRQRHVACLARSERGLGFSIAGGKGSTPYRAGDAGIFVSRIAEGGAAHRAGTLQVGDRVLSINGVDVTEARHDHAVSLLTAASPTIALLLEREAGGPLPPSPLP
# Chain of GRID2IP_1, A4D2P6 (A4D2P6 1-87): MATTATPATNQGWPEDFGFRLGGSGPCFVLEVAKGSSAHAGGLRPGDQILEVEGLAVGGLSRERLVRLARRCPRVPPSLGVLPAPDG
# Chain of MAGI2_4, Q86UL8 (Q86UL8 772-865): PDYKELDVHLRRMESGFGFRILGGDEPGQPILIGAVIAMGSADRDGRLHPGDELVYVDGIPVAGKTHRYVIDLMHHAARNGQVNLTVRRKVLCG
# Chain of PDZRN4_1, Q6ZMN7 (Q6ZMN7 213-318): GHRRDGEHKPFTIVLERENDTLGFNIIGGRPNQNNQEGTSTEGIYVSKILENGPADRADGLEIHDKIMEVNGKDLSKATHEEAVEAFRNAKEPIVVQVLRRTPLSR
# Chain of LAP2, Q96RT1 (Q96RT1 other isoform, or with tags, fused parts or gaps): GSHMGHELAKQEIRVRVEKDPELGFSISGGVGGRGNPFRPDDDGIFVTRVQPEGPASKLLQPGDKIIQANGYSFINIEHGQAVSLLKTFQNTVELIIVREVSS
# Chain of FRMPD3, Q5JV73 (Q5JV73 12-100): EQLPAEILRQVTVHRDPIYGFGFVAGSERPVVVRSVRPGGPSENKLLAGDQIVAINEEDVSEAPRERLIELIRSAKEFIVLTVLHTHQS
# Chain of HTRA2, O43464 (O43464 355-458): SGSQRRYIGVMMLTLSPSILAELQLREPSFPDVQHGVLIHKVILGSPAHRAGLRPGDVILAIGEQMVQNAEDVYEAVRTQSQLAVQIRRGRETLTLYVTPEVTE
# Chain of DLG1_3, Q12959 (Q12959 457-571): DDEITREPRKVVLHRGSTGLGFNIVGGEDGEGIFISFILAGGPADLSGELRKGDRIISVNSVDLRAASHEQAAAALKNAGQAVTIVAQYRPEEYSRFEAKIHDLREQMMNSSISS
# Chain of SCRIB_1, Q14160 (Q14160 718-814): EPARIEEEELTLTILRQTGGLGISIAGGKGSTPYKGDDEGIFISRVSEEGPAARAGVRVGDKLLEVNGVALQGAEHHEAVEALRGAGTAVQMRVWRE
# Chain of GRIP2_3, Q9C0E4 (Q9C0E4 238-339): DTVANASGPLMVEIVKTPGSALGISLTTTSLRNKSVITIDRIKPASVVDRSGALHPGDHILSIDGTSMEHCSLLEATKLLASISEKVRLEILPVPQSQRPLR
# Chain of MAGI2_2, Q86UL8 (Q86UL8 410-522): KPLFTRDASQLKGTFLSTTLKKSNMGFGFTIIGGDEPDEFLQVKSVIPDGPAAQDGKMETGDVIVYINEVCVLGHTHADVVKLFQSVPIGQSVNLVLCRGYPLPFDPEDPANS
binder,measurement,setting,value
"DDEDRLVIEI [ZNF831, Q5JPB2]",pKd,[1]; [28],below the threshold
same,pKd,[2]; [28],below the threshold
same,pKd,[3]; [28],below the threshold
same,pKd,[4]; [28],4.12
same,pKd,[5]; [28],below the threshold
same,pKd,[6]; [28],below the threshold
same,pKd,[7]; [28],below the threshold
same,pKd,[8]; [28],4.72
same,pKd,[9]; [28],below the threshold
same,pKd,[10]; [28],below the threshold
same,pKd,[11]; [28],below the threshold
same,pKd,[12]; [28],below the threshold
same,pKd,[13]; [28],below the threshold
same,pKd,[14]; [28],below the threshold
same,pKd,[15]; [28],below the threshold
same,pKd,[16]; [28],below the threshold
same,pKd,[17]; [28],below the threshold
same,pKd,[18]; [28],below the threshold
same,pKd,[19]; [28],below the threshold
same,pKd,[20]; [28],3.64
same,pKd,[21]; [28],below the threshold
same,pKd,[22]; [28],below the threshold
same,pKd,[23]; [28],below the threshold
same,pKd,[24]; [28],below the threshold
same,pKd,[25]; [28],below the threshold
same,pKd,[26]; [28],below the threshold
same,pKd,[27]; [28],below the threshold
"PKRSFIESNV [TANC1, Q9C0D5]",pKd,[1]; [28],below the threshold
same,pKd,[2]; [28],3.68
same,pKd,[3]; [28],below the threshold
same,pKd,[4]; [28],below the threshold
same,pKd,[5]; [28],4.32
same,pKd,[6]; [28],4.27
same,pKd,[7]; [28],below the threshold
same,pKd,[8]; [28],4.06
same,pKd,[9]; [28],below the threshold
same,pKd,[10]; [28],below the threshold
same,pKd,[11]; [28],below the threshold
same,pKd,[12]; [28],below the threshold
same,pKd,[13]; [28],below the threshold
same,pKd,[14]; [28],below the threshold
same,pKd,[15]; [28],below the threshold
same,pKd,[16]; [28],5.27
same,pKd,[17]; [28],below the threshold
same,pKd,[18]; [28],4.81
same,pKd,[19]; [28],below the threshold
same,pKd,[20]; [28],below the threshold
same,pKd,[21]; [28],3.82
same,pKd,[22]; [28],5.2
same,pKd,[23]; [28],4.88
same,pKd,[24]; [28],5.51
same,pKd,[25]; [28],5.28
same,pKd,[26]; [28],below the threshold
same,pKd,[27]; [28],below the threshold
"NLNSSEGVPDLLV [SARS-CoV-E, P59637]",pKd,[1]; [29],below the threshold
same,pKd,[2]; [29],below the threshold
same,pKd,[3]; [29],below the threshold
same,pKd,[4]; [29],below the threshold
same,pKd,[5]; [29],below the threshold
same,pKd,[6]; [29],below the threshold
same,pKd,[7]; [29],below the threshold
same,pKd,[8]; [29],below the threshold
same,pKd,[9]; [29],below the threshold
same,pKd,[10]; [29],below the threshold
same,pKd,[11]; [29],below the threshold
same,pKd,[12]; [29],below the threshold
same,pKd,[13]; [29],below the threshold
same,pKd,[14]; [29],below the threshold
same,pKd,[15]; [29],below the threshold
same,pKd,[16]; [29],below the threshold
same,pKd,[17]; [29],below the threshold
same,pKd,[18]; [29],below the threshold
same,pKd,[19]; [29],below the threshold
same,pKd,[20]; [29],below the threshold
same,pKd,[21]; [29],below the threshold
same,pKd,[22]; [29],below the threshold
same,pKd,[23]; [29],below the threshold
same,pKd,[24]; [29],below the threshold
same,pKd,[25]; [29],3.99
same,pKd,[26]; [29],below the threshold
same,pKd,[27]; [29],below the threshold
"QKNRKAQEDL [CES3, Q6UWW8]",pKd,[1]; [28],below the threshold
same,pKd,[2]; [28],below the threshold
same,pKd,[3]; [28],3.5
same,pKd,[4]; [28],4.05
same,pKd,[5]; [28],below the threshold
same,pKd,[6]; [28],below the threshold
same,pKd,[7]; [28],below the threshold
same,pKd,[8]; [28],below the threshold
same,pKd,[9]; [28],below the threshold
same,pKd,[10]; [28],below the threshold
same,pKd,[11]; [28],below the threshold
same,pKd,[12]; [28],below the threshold
same,pKd,[13]; [28],below the threshold
same,pKd,[14]; [28],below the threshold
same,pKd,[15]; [28],below the threshold
same,pKd,[16]; [28],below the threshold
same,pKd,[17]; [28],below the threshold
same,pKd,[18]; [28],below the threshold
same,pKd,[19]; [28],below the threshold
same,pKd,[20]; [28],3.61
same,pKd,[21]; [28],below the threshold
same,pKd,[22]; [28],below the threshold
same,pKd,[23]; [28],below the threshold
same,pKd,[24]; [28],below the threshold
same,pKd,[25]; [28],below the threshold
same,pKd,[26]; [28],below the threshold
same,pKd,[27]; [28],below the threshold
